This is an account of results in patent US20220372114A1 (CURIA IP, published 2022).

For assay [1], the target named is SARS-CoV-2 (WIV02 isolate) prefusion stabilized spike trimer protein (SARS-CoV-2 (WIV02 isolate), UniProt P0DTC2 14-1213). Kind of assay: ELISA.
Assay [2] deals with SARS-CoV-2 spike protein on live wild-type virus (SARS-CoV-2, UniProt P0DTC2 14-1273). Kind of assay: cell-based or functional assay.

Numbering of substitutions follows the chain as printed. Values joined by “and” are separate entries in the source; they are usually repeats but may differ in a detail not shown here. Equal values may be shown once.

B1: 7-B10-A (antibody, V domains shown)
VH: EVQLVESGGGLVQPKGSLKLSCAASGFTFNTYAMHWVRQAPGKGLEWVARIRSKSSNYARYYADSVKDRFTISRDESQSMLYLQMNNLKTEDTAMYYCVRDHDYYGSSYWFAYWGQGTLVTVSA
VL: DVVMTQTPLSLPVSLGDQASISCSSSQSLVHNNGNTYLHWYLQKPGQSPKLLIYKVSNRFSGVPDRFSGSGSGTDFTLKISRVEAEDLGVYFCSQSTHVPWTFGGGTKLEIK
In the case of B1, the binding result in assay [1] is given as “binds”.

B2: 4-K13-A (antibody, V domains shown)
VH: QAYLQQSGAELVRPGASVKMSCKASGYTFTSYTVHWVKQTPRQGLEWIGAIYPGNVDTSYNQNFKGKATLTVDKSSSTAYMQLSSLTSEDSAVYFCARDGYYAMDYWGQGTSVTVSS
VL: not shown
As for B2, the binding result in assay [1] was “binds”.

B3: 10-B13-A (human Fc IgG2 chimera) (antibody, V domains shown)
VH: QVQLQQSGAELVKPGASVKISCKASGYAFSNYWMNWVKQRPGKGLEWIGQIYPGDGDTNYNGNFKGKATLTADKSSSTAYIQLSSLTSEDSAVYFCGRGFIATVVEVFDHWGLGTTLTVSS
VL: DIQMTQTTSSLSASLGDRVTISCRASQDISNYLNWYQQKPDGTVKLLIYYTSRLQSGVPSRFSGSGTGTDYSLTISNLEQEDIATYFCQQGNTLPWTFGGGTKLEIK
As to B3, the “IC50, BSL3 Vero E6 infection plaque assay” value in assay [2] was 0.21 µg/mL and 1.4 nM.

B4: 5-P24-A (antibody, V domains shown)
VH: QAYLQQSGAELVRPGASVKMSCKASGYTFTSYSMHWVKQTPRQGLEWIGAIYPGNGDTSYTQKFKGKATLTVDKSSSTAYMQLSSLTSEDSAVYFCARDYSNYPFDYWGQGTTLTVSS
VL: not shown
Turning to B4, the binding result in assay [1] is “binds”.

B5: 10-L12-A (antibody, V domains shown)
VH: B4 VH with T61N, A97T
VL: DIVLTQSPASLAVSLGQRATISCRASKSVSTSGYSYLHWYQQKPGQPPKLLIYLASNLESGVPARFSGSGSGTDFTLNIHPVEEEDAATYYCQHSRELPPTFGGGTKLEIK
B5: in assay [1], the binding result is listed as “binds”.
